Results from US7422884B2, “Feedback-resistant mevalonate kinases” (DSM IP Assetts B.V., priority 2003, dated 2008).
Positions count from the first letter of the chain named. Names may count otherwise.

B1: WT: wild-type His6-tagged mevalonate kinase of Paracoccus zeaxanthinifaciens, SEQ ID NO:15 (protein)
chain: MRGSHHHHHHSTGRPEAGAHAPGKLILSGEHSVLYGAPALAMAIARYTEVWFTPLGIGEGIRTTFANLSGGATYSLKLLSGFKSRLDRRFEQFLNGDLKVHKVLTHPDDLAVYALASLLHDKPPGTAAMPGIGAMHHLPRPGELGSRTELPIGAGMGSSAAIVAATTVLFETLLDRPKTPEQRFDRVRFCERLKHGKAGPIDAASVVRGGLVRVGGNGPGSISSFDLPEDHDLVAGRGWYWVLHGRPVSGTGECVSAVAAAHGRDAALWDAFAVCTRALEAALLSGGSPDAAITENQRLLERIGVVPAATQALVAQIEEAGGAAKICGAGSVRGDHGGAVLVRIDDAQAMASVMARHPDLDWAPLRMSRTGAAPGPAPRAQPLPGQG
modifications: His6 tag; His6-Paracoccus zeaxanthinifaciens
B2: G47D (protein, listed as Paracoccus zeaxanthinifaciens)
chain: MSTGRPEAGAHAPGKLILSGEHSVLYGAPALAMAIARYTEVWFTPLDIGEGIRTTFANLSGGATYSLKLLSGFKSRLDRRFEQFLNGDLKVHKVLTHPDDLAVYALASLLHDKPPGTAAMPGIGAMHHLPRPGELGSRTELPIGAGMGSSAAIVAATTVLFETLLDRPKTPEQRFDRVRFCERLKHGKAGPIDAASVVRGGLVRVGGNGPGSISSFDLPEDHDLVAGRGWYWVLHGRPVSGTGECVSAVAAAHGRDAALWDAFAVCTRALEAALLSGGSPDAAITENQRLLERIGVVPAATQALVAQIEEAGGAAKICGAGSVRGDHGGAVLVRIDDAQAMASVMARHPDLDWAPLRMSRTGAAPGPAPRAQPLPGQG
B3: K93E (protein, listed as Paracoccus zeaxanthinifaciens)
chain: B2 chain with D47G, K93E

Experiments:
[1] = tested on: His6-tagged Paracoccus zeaxanthinifaciens mevalonate kinase; experiment: Feedback inhibition of mevalonate kinase by downstream products of the pathway; format: biochemical; conditions: 138 μM of the inhibitor; wild-type His6-tagged enzyme
Protocol: (§1) Enzymatic assays for measuring mevalonate kinase activity have been described, e.g., by Popák (Meth. Enzymol. 15, 393-, 1969), Gibson et al. (Enzyme 41, 47-55, 1989), Hinson et al. (J. Lipid Res. 38, 2216-2223, 1997), Schulte et al. (Anal. Biochem. 269, 245-254, 1999), or Cho et al. (J. Biol. Chem. 276, 12573-12578, 2001). For preparing mevalonate as substrate, 130 mg of DL-mevalonate lactone (FLUKA Chemie AG, Buchs, Switzerland) were dissolved in 5.5 ml of 0.2 M KOH and incubated for 15 min at 50° C. The solution was then adjusted to pH 7.0 by addition of 0.1 M HCl at room temperature (RT). Except if stated otherwise (see Example 3), the assay mixture consists of 100 mM K2HPO4/KH2PO4 (pH 7.0), 1 mM ATP, 2 mM MgCl2, 1 mM mevalonate, 0.5 mM phosphoenolpyruvate (PEP), 0.32 mM NADH, 20 U/ml pyruvate kinase and 27 U/ml lactate dehydrogenase (Sigma-Aldrich, St. Louis, Mo., USA). FPP, GGPP, IPP, DMAPP and GPP tested as inhibitors in the assay mixtures (at concentrations of 0-100 μM) were all purchased from Sigma. Upon addition of purified (His6-tagged) mevalonate kinase, enzymatic reaction reflected by consumption of NADH was followed by photometric measurement at 340 nm. One unit (1 U) of mevalonate kinase activity catalyzes the phosphorylation of 1 μmol of mevalonate per min.
(§2) Mevalonate was prepared as described in Example 2. The assay mixture consists of 100 mM K2HPO4/KH2PO4 (pH 7.0), 1 mM ATP, 1 mM mevalonate, 2 mM MgCl2, 0.5 mM phosphoenolpyruvate (PEP), 0.32 mM NADH, 20 U/ml pyruvate kinase and 27 U/ml lactate dehydrogenase (Sigma-Aldrich, St. Louis, Mo., USA). FPP, GGPP, IPP, DMAPP and GPP tested as inhibitors in the assay mixtures were all purchased from Sigma. 92 μM FPP or 17.6 μM GGPP were used for inhibition assays performed with the mevalonate kinase mutants. For the comparison of inhibition by FPP, GGPP, IPP, DMAPP and GPP, 138 μM of these intermediates were added (Example 9). Upon addition of purified (HiS6-tagged) mevalonate kinase, enzymatic reaction reflected by consumption of NADH was followed by photometric measurement at 340 nm.
Different mevalonate kinases were previously reported to be sensitive to feedback inhibition by the following downstream products of the mevalonate pathway: IPP, DMAPP, GPP, FPP, GGPP, phytyl-PP, farnesol, dolichol phosphate.

[2] = pH 8
[3] = tested on: Paracoccus zeaxanthinifaciens mevalonate kinase; experiment: Mevalonate kinase activity assay (NADH-coupled photometric assay, specific activity of mutants); format: biochemical; conditions: purified His6-tagged enzyme, 1 mM ATP, 1 mM mevalonate, pH 7.0
Protocol: as §1, §2

[4] = tested on: Paracoccus zeaxanthinifaciens mevalonate kinase; experiment: Feedback resistance of mevalonate kinase mutants to FPP or GGPP; format: biochemical; conditions: feedback inhibitor FPP, 92 μM; relative to wild-type
Protocol: “Feedback resistance” shall mean any increase in resistance to “feedback inhibition” (as defined above). Feedback resistance can be analyzed in different ways known to those skilled in the art. An appropriate approach shall be described here shortly: mevalonate kinase activity is measured in an activity assay similar to the one described in Example 2 at non-saturating concentrations of ATP (or of another phosphate donor) and mevalonate (or mevalonate analogue), i.e., at ATP (or phosphate donor) and mevalonate (or mevalonate analogue) concentrations around which the reaction rate is sensitive to changes of these substrate concentrations, e.g. at concentrations around the respective Km values of the enzyme under investigation for these substrates. The activities of both wild-type mevalonate kinase and of a variant/mutant of this enzyme are measured under otherwise identical conditions both in the absence and presence of a relevant concentration of a feedback inhibitor, i.e., at a concentration of feedback inhibitor affording significant inhibition of the wild-type mevalonate kinase. […] Feedback resistance (%) is calculated as follows: if a and b are the measured mevalonate kinase activities of the wild-type enzyme in the absence and presence, respectively, of the feedback inhibitor (e.g., FPP), and if c and d are the measured mevalonate kinase activities of the mutant enzyme in the absence and presence, respectively, of the same feedback inhibitor, then % feedback resistance is: % resistance=100·((d/c)−(b/a))/(1−(b/a)) […]
Feedback resistance (%) is calculated as follows: if a and b are the measured mevalonate kinase activities of the wild-type enzyme in the absence and presence, respectively, of the feedback inhibitor (in this case, FPP), and if c and d are the measured mevalonate kinase activities of the mutant enzyme in the absence and presence, respectively, of the same feedback inhibitor, then % feedback resistance is: % resistance=100·((d/c)−(b/a))/(1−(b/a))

Molecule | Inhibition of mevalonate kinase activity [1] | Solubility / tendency to aggregate [2] | Specific activity (% of wild-type) [3] | Feedback resistance (%) [4]
CC(C)=CCC/C(C)=C/CC/C(C)=C/CC/C(C)=C/COP(=O)(O)OP(=O)(O)O [GGPP, geranylgeranyl diphosphate] | 98% | – | – | –
C=C(C)CCOP(=O)(O)OP(=O)(O)O [IPP, isopentenyl diphosphate] | 16.3% | – | – | –
CC(C)=CCC/C(C)=C/COP(=O)(O)OP(=O)(O)O [GPP, geranyl diphosphate] | 18.6% | – | – | –
CC(C)=CCOP(=O)(O)OP(=O)(O)O [DMAPP, 3,3-dimethylallyl diphosphate] | 14.7% | – | – | –
B1 | – | pronounced tendency to aggregate/precipitate | 100 % of wild-type | 0%
B2 | – | – | 121 % of wild-type | 32%
B3 | – | – | 109 % of wild-type | 33%
